From paper PMC12954864

Molecular target: GST-tag (glutathione S-transferase) freed from GST-ΔN-ATAD2B
Test: SEC; Superdex 200 Increase 10/300 GL (ÄKTAprime), ATAD2B sample from E. coli against a molecular-weight standard mixture; peak 1 ~9 ml near thyroglobulin (670 kDa), peak 2 ~15 ml before ovalbumin (44 kDa)

stoichiometry N: 2
Substance: GST-tag (glutathione S-transferase) freed from GST-ΔN-ATAD2B
